Laboratory results published in patent publication US20230293638A1 (Eli Lilly, published 2023).
Where a chain is given by its changes, count along the chain named. Numbered stars: 1 amine (or outer) side, 2 acyl side, 3 side chain; on linkers, the order of the positions; unused ones are H or OH. Square brackets hold non-standard residues; d marks the D form. Side chains are listed from the residue outwards. Ends that are not written are not given here. * marks the point of attachment. C20 diacid = O=C(O)CCCCCCCCCCCCCCCCCCC(=O)*; γGlu = O=C(O)[C@H](CCC(=O)[*:2])N[*:1]; AEEA = NCCOCCOCC(=O)O; Aib = CC(C)(N)C(=O)O

B1: Peptide 51 (peptide)
peptide: Y[Aib]EGTFTSDYSILLDKK([AEEA-AEEA-γGlu-C20 diacid])AQ[Aib]AFIEYLIEGG-NH2
modifications: N-terminus assumed
SMILES: CC[C@H](C)[C@H](NC(=O)[C@H](CC(C)C)NC(=O)[C@H](Cc1ccc(O)cc1)NC(=O)[C@H](CCC(=O)O)NC(=O)[C@@H](NC(=O)[C@H](Cc1ccccc1)NC(=O)[C@H](C)NC(=O)C(C)(C)NC(=O)[C@H](CCC(N)=O)NC(=O)[C@H](C)NC(=O)[C@H](CCCCNC(=O)COCCOCCNC(=O)COCCOCCNC(=O)CC[C@H](NC(=O)CCCCCCCCCCCCCCCCCCC(=O)O)C(=O)O)NC(=O)[C@H](CCCCN)NC(=O)[C@H](CC(=O)O)NC(=O)[C@H](CC(C)C)NC(=O)[C@H](CC(C)C)NC(=O)[C@@H](NC(=O)[C@H](CO)NC(=O)[C@H](Cc1ccc(O)cc1)NC(=O)[C@H](CC(=O)O)NC(=O)[C@H](CO)NC(=O)[C@@H](NC(=O)[C@H](Cc1ccccc1)NC(=O)[C@@H](NC(=O)CNC(=O)[C@H](CCC(=O)O)NC(=O)C(C)(C)NC(=O)[C@@H](N)Cc1ccc(O)cc1)[C@@H](C)O)[C@@H](C)O)[C@@H](C)CC)[C@@H](C)CC)C(=O)N[C@@H](CCC(=O)O)C(=O)NCC(=O)NCC(N)=O
B2: Peptide 46 (peptide)
peptide: Y[Aib]EGTFTSDYSILLDKIAQ[Aib]AFIEYLIEGGPSSGAPK([AEEA-AEEA-γGlu-C20 diacid])PS-NH2
modifications: N-terminus assumed
SMILES: CC[C@H](C)[C@H](NC(=O)[C@H](CCCCN)NC(=O)[C@H](CC(=O)O)NC(=O)[C@H](CC(C)C)NC(=O)[C@H](CC(C)C)NC(=O)[C@@H](NC(=O)[C@H](CO)NC(=O)[C@H](Cc1ccc(O)cc1)NC(=O)[C@H](CC(=O)O)NC(=O)[C@H](CO)NC(=O)[C@@H](NC(=O)[C@H](Cc1ccccc1)NC(=O)[C@@H](NC(=O)CNC(=O)[C@H](CCC(=O)O)NC(=O)C(C)(C)NC(=O)[C@@H](N)Cc1ccc(O)cc1)[C@@H](C)O)[C@@H](C)O)[C@@H](C)CC)C(=O)N[C@@H](C)C(=O)N[C@@H](CCC(N)=O)C(=O)NC(C)(C)C(=O)N[C@@H](C)C(=O)N[C@@H](Cc1ccccc1)C(=O)N[C@H](C(=O)N[C@@H](CCC(=O)O)C(=O)N[C@@H](Cc1ccc(O)cc1)C(=O)N[C@@H](CC(C)C)C(=O)N[C@H](C(=O)N[C@@H](CCC(=O)O)C(=O)NCC(=O)NCC(=O)N1CCC[C@H]1C(=O)N[C@@H](CO)C(=O)N[C@@H](CO)C(=O)NCC(=O)N[C@@H](C)C(=O)N1CCC[C@H]1C(=O)N[C@@H](CCCCNC(=O)COCCOCCNC(=O)COCCOCCNC(=O)CC[C@H](NC(=O)CCCCCCCCCCCCCCCCCCC(=O)O)C(=O)O)C(=O)N1CCC[C@H]1C(=O)N[C@@H](CO)C(N)=O)[C@@H](C)CC)[C@@H](C)CC
B3: Peptide 64 (peptide)
peptide: YXEGTFTSDYSIXLDSKAQXAFIEYLIEGG
modifications: Aib2; αMeL13; K17((2-[2-(2-Amino-ethoxy)-ethoxy]-acetyl)2-(γGlu)-CO-(CH2)18-CO2H); Aib20; C-terminal NH2
B4: Peptide 47 (peptide)
peptide: Y[Aib]EGTFTSDYSILLDKIAQ[Aib]AFIEYLIEGGPSSGAPPK([AEEA-AEEA-γGlu-C20 diacid])S-NH2
modifications: N-terminus assumed
SMILES: CC[C@H](C)[C@H](NC(=O)[C@H](CCCCN)NC(=O)[C@H](CC(=O)O)NC(=O)[C@H](CC(C)C)NC(=O)[C@H](CC(C)C)NC(=O)[C@@H](NC(=O)[C@H](CO)NC(=O)[C@H](Cc1ccc(O)cc1)NC(=O)[C@H](CC(=O)O)NC(=O)[C@H](CO)NC(=O)[C@@H](NC(=O)[C@H](Cc1ccccc1)NC(=O)[C@@H](NC(=O)CNC(=O)[C@H](CCC(=O)O)NC(=O)C(C)(C)NC(=O)[C@@H](N)Cc1ccc(O)cc1)[C@@H](C)O)[C@@H](C)O)[C@@H](C)CC)C(=O)N[C@@H](C)C(=O)N[C@@H](CCC(N)=O)C(=O)NC(C)(C)C(=O)N[C@@H](C)C(=O)N[C@@H](Cc1ccccc1)C(=O)N[C@H](C(=O)N[C@@H](CCC(=O)O)C(=O)N[C@@H](Cc1ccc(O)cc1)C(=O)N[C@@H](CC(C)C)C(=O)N[C@H](C(=O)N[C@@H](CCC(=O)O)C(=O)NCC(=O)NCC(=O)N1CCC[C@H]1C(=O)N[C@@H](CO)C(=O)N[C@@H](CO)C(=O)NCC(=O)N[C@@H](C)C(=O)N1CCC[C@H]1C(=O)N1CCC[C@H]1C(=O)N[C@@H](CCCCNC(=O)COCCOCCNC(=O)COCCOCCNC(=O)CC[C@H](NC(=O)CCCCCCCCCCCCCCCCCCC(=O)O)C(=O)O)C(=O)N[C@@H](CO)C(N)=O)[C@@H](C)CC)[C@@H](C)CC
B5: Peptide 63 (peptide)
peptide: B3 peptide with S16E
modifications: Aib2; αMeL13; K17((2-[2-(2-Amino-ethoxy)-ethoxy]-acetyl)2-(γGlu)-CO-(CH2)18-CO2H); Aib20; C-terminal NH2
B6: Peptide 65 (peptide)
peptide: B3 peptide with S16T
modifications: Aib2; αMeL13; K17((2-[2-(2-Amino-ethoxy)-ethoxy]-acetyl)2-(γGlu)-CO-(CH2)18-CO2H); Aib20; C-terminal NH2
B7: Peptide 50 (peptide)
peptide: Y[Aib]EGTFTSDYSILLDKK([AEEA-AEEA-γGlu-C20 diacid])AQ[Aib]AFIEYLIEGGPSSG-NH2
modifications: N-terminus assumed
SMILES: CC[C@H](C)[C@H](NC(=O)[C@H](CC(C)C)NC(=O)[C@H](Cc1ccc(O)cc1)NC(=O)[C@H](CCC(=O)O)NC(=O)[C@@H](NC(=O)[C@H](Cc1ccccc1)NC(=O)[C@H](C)NC(=O)C(C)(C)NC(=O)[C@H](CCC(N)=O)NC(=O)[C@H](C)NC(=O)[C@H](CCCCNC(=O)COCCOCCNC(=O)COCCOCCNC(=O)CC[C@H](NC(=O)CCCCCCCCCCCCCCCCCCC(=O)O)C(=O)O)NC(=O)[C@H](CCCCN)NC(=O)[C@H](CC(=O)O)NC(=O)[C@H](CC(C)C)NC(=O)[C@H](CC(C)C)NC(=O)[C@@H](NC(=O)[C@H](CO)NC(=O)[C@H](Cc1ccc(O)cc1)NC(=O)[C@H](CC(=O)O)NC(=O)[C@H](CO)NC(=O)[C@@H](NC(=O)[C@H](Cc1ccccc1)NC(=O)[C@@H](NC(=O)CNC(=O)[C@H](CCC(=O)O)NC(=O)C(C)(C)NC(=O)[C@@H](N)Cc1ccc(O)cc1)[C@@H](C)O)[C@@H](C)O)[C@@H](C)CC)[C@@H](C)CC)C(=O)N[C@@H](CCC(=O)O)C(=O)NCC(=O)NCC(=O)N1CCC[C@H]1C(=O)N[C@@H](CO)C(=O)N[C@@H](CO)C(=O)NCC(N)=O
B8: Peptide 62 (peptide)
peptide: B3 peptide with S16K
modifications: Aib2; αMeL13; K17((2-[2-(2-Amino-ethoxy)-ethoxy]-acetyl)2-(γGlu)-CO-(CH2)18-CO2H); Aib20; C-terminal NH2
B9: Peptide 41 (peptide)
peptide: Y[Aib]EGTFTSDYSILLDKIAQ[Aib]AFIEYLIEGGPK([AEEA-AEEA-γGlu-C20 diacid])SGAPPPS-NH2
modifications: N-terminus assumed
SMILES: CC[C@H](C)[C@H](NC(=O)[C@H](CCCCN)NC(=O)[C@H](CC(=O)O)NC(=O)[C@H](CC(C)C)NC(=O)[C@H](CC(C)C)NC(=O)[C@@H](NC(=O)[C@H](CO)NC(=O)[C@H](Cc1ccc(O)cc1)NC(=O)[C@H](CC(=O)O)NC(=O)[C@H](CO)NC(=O)[C@@H](NC(=O)[C@H](Cc1ccccc1)NC(=O)[C@@H](NC(=O)CNC(=O)[C@H](CCC(=O)O)NC(=O)C(C)(C)NC(=O)[C@@H](N)Cc1ccc(O)cc1)[C@@H](C)O)[C@@H](C)O)[C@@H](C)CC)C(=O)N[C@@H](C)C(=O)N[C@@H](CCC(N)=O)C(=O)NC(C)(C)C(=O)N[C@@H](C)C(=O)N[C@@H](Cc1ccccc1)C(=O)N[C@H](C(=O)N[C@@H](CCC(=O)O)C(=O)N[C@@H](Cc1ccc(O)cc1)C(=O)N[C@@H](CC(C)C)C(=O)N[C@H](C(=O)N[C@@H](CCC(=O)O)C(=O)NCC(=O)NCC(=O)N1CCC[C@H]1C(=O)N[C@@H](CCCCNC(=O)COCCOCCNC(=O)COCCOCCNC(=O)CC[C@H](NC(=O)CCCCCCCCCCCCCCCCCCC(=O)O)C(=O)O)C(=O)N[C@@H](CO)C(=O)NCC(=O)N[C@@H](C)C(=O)N1CCC[C@H]1C(=O)N1CCC[C@H]1C(=O)N1CCC[C@H]1C(=O)N[C@@H](CO)C(N)=O)[C@@H](C)CC)[C@@H](C)CC
B10: Peptide 52 (peptide)
peptide: YXEGTFTSDYSIXLDSKAQXAFIEYLIEGGPSSGAPPPS
modifications: Aib2; αMeL13; K17((2-[2-(2-Amino-ethoxy)-ethoxy]-acetyl)2-(γGlu)-CO-(CH2)18-CO2H); Aib20; C-terminal NH2
B11: Peptide 3 (peptide)
peptide: B10 peptide with F6X, S16X, A21E, E24X
modifications: Aib2; αMeF(2F)6; αMeL13; Orn16; K17((2-[2-(2-Amino-ethoxy)-ethoxy]-acetyl)2-(γGlu)-CO-(CH2)18-CO2H); Aib20; D-Glu24; C-terminal NH2
B12: Peptide 66 (peptide)
peptide: B10 peptide with S16E, I27L
modifications: Aib2; αMeL13; K17((2-[2-(2-Amino-ethoxy)-ethoxy]-acetyl)2-(γGlu)-CO-(CH2)18-CO2H); Aib20; C-terminal NH2
B13: Peptide 60 (peptide)
peptide: B10 peptide with S16X
modifications: Aib2; αMeL13; Aib16; K17((2-[2-(2-Amino-ethoxy)-ethoxy]-acetyl)2-(γGlu)-CO-(CH2)18-CO2H); Aib20; C-terminal NH2
B14: Peptide 68 (peptide)
peptide: B10 peptide with S11X, X13L, S16K
modifications: Aib2; αMeS11; K17((2-[2-(2-Amino-ethoxy)-ethoxy]-acetyl)2-(γGlu)-CO-(CH2)18-CO2H); Aib20; C-terminal NH2
B15: Peptide 69 (peptide)
peptide: B10 peptide with F6X, S16K
modifications: Aib2; αMeF6; αMeL13; K17((2-[2-(2-Amino-ethoxy)-ethoxy]-acetyl)2-(γGlu)-CO-(CH2)18-CO2H); Aib20; C-terminal NH2
B16: Peptide 48 (peptide)
peptide: Y[Aib]EGTFTSDYSILLDKIAQ[Aib]AFIEYLIEGGPSSGAPPPK([AEEA-AEEA-γGlu-C20 diacid])-NH2
modifications: N-terminus assumed
SMILES: CC[C@H](C)[C@H](NC(=O)[C@H](CCCCN)NC(=O)[C@H](CC(=O)O)NC(=O)[C@H](CC(C)C)NC(=O)[C@H](CC(C)C)NC(=O)[C@@H](NC(=O)[C@H](CO)NC(=O)[C@H](Cc1ccc(O)cc1)NC(=O)[C@H](CC(=O)O)NC(=O)[C@H](CO)NC(=O)[C@@H](NC(=O)[C@H](Cc1ccccc1)NC(=O)[C@@H](NC(=O)CNC(=O)[C@H](CCC(=O)O)NC(=O)C(C)(C)NC(=O)[C@@H](N)Cc1ccc(O)cc1)[C@@H](C)O)[C@@H](C)O)[C@@H](C)CC)C(=O)N[C@@H](C)C(=O)N[C@@H](CCC(N)=O)C(=O)NC(C)(C)C(=O)N[C@@H](C)C(=O)N[C@@H](Cc1ccccc1)C(=O)N[C@H](C(=O)N[C@@H](CCC(=O)O)C(=O)N[C@@H](Cc1ccc(O)cc1)C(=O)N[C@@H](CC(C)C)C(=O)N[C@H](C(=O)N[C@@H](CCC(=O)O)C(=O)NCC(=O)NCC(=O)N1CCC[C@H]1C(=O)N[C@@H](CO)C(=O)N[C@@H](CO)C(=O)NCC(=O)N[C@@H](C)C(=O)N1CCC[C@H]1C(=O)N1CCC[C@H]1C(=O)N1CCC[C@H]1C(=O)N[C@@H](CCCCNC(=O)COCCOCCNC(=O)COCCOCCNC(=O)CC[C@H](NC(=O)CCCCCCCCCCCCCCCCCCC(=O)O)C(=O)O)C(N)=O)[C@@H](C)CC)[C@@H](C)CC

Target: human GLP-1 receptor (human, UniProt P43220 24-463)
Experiment: cell-based or functional assay

Row | Binder | hGLPIR cAMP EC50 ratio
1 | B1 | 0.426
2 | B2 | 0.0969
3 | B3 | 0.429
4 | B4 | 0.089
5 | B5 | 0.386
6 | B6 | 0.233
7 | B7 | 0.675
8 | B8 | 0.463
9 | B9 | 0.0637
10 | B10 | 0.514
11 | B11 | 1.25
12 | B12 | 0.255
13 | B13 | 0.237
14 | B14 | 0.354
15 | B15 | 0.85
16 | B16 | 0.0966
